# The nanobody polyreactivity screen of Harvey et al. (2022)
# Test: yeast display, Sf9 membrane polyspecificity reagent, FACS + sequencing; frameworks hold sequencing errors
# Outline: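 Using colony PCR, genes from sorted yeast display clones were amplified, then sequenced on MiSeq at 2 × 250 and filtered by CDR length. The clones had been stained with 10% biotinylated, detergent-solubilized Sf9 membrane reagent for 1 hour at 4 °C and sorted by FACS into low and high (top ~1%) gates on anti-HA and streptavidin fluorescence. Polyreactivity labels come from the gate of origin.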
row,Sequence,polyreactivity (PSR sort gate)
1,QVQLVESGGGLVQAGGSLRISCAASGITYKEYAMGWYRQAPGKERELVAAISISGGSTYYADSVKGRFTISRDNAKNTFYLQMNSLKPEDTAVYFCAADYAEYEYGDYYWGQGTQVTVSS,low polyreactivity
2,QVQLVESGGGLVQAGGSLRISCAASGLIFNFNALGWYRQAPGKERELVAAITRSGSTDYADSVKGRFTISRDNAKNTVYLQLNSLKPEDTAVYYCAAEFYLRRFKVTKRYWFDYWGQGTQVTVSS,low polyreactivity
3,QVQLVESGGGLVQAGGSLRISCAASGLTLTSNDMGWYRQAPGKEREFVASITWSGGSTSYADSVKGRFTISRDNAKNTVYLQMNSLKPEDTAVYYCAARPRYFSKSWRGYYYWGQGTQVNVSS,high polyreactivity
4,QVQLVESGGGLVQAGGSLRISCAASGLTSYSYAMGWYRQAPGKERELVAAITVNGGRTYYADSVKGRFTISRDNAKNTVYLQMNSLKPEDTAVYYCAAREVTGRPRSYYYWGQGTQVTVSS,low polyreactivity
5,QVQLVESGGGLVQAGGSLRISCAASGNIIRKYAMGWYRQAPGKEREFVAAISSSGGRTYYADSVKGRFTISRDNAKNTVYLQMNSLKPEDTAGYYCARPYSYAYVLGDYWGQGTQVTVSS,high polyreactivity
6,QVQLVESGGGLVQAGGSLRISCAASGRIFFIKAMGWYRQAPGKERELVAAIRRDTRTYYADSVKGRFTISRDNAKNTVYLQMNSLKPEDTAVYYCAADDPWHYDFDYWGQGTQVTVSS,low polyreactivity
7,QVQLVESGGGLVQAGGSLRISCAASGRIFGFNAMGWYRQAPGKERELVAAISRTSSSTYYADSVKGRFTISRDNAKNTVYLQMNSLKPEDTAVYYCATRYFTHGKYDYWGQGTQVTVSS,high polyreactivity
8,QVQLVESGGGLVQAGGSLRISCAASGRIFNSYAMGWYRQAPGKERELVASISTSGGSTYYADSVKGRFTISRDNAKNTVYLQMNSLKPEDTAVYYCARRYYPKFWYTYDSWGQGTQVTVSS,low polyreactivity
9,QVQLVESGGGLVQAGGSLRISCAASGRIFPFYAMGWYRQAPGKDRELVAAIRSGGGSTYYADSVKGRFTISRDNAKKTVYLQRNSLKPEDTAVYYCTARGRLGSAGRYNYWGQGTQVTVSS,high polyreactivity
10,QVQLVESGGGLVQAGGSLRISCAASGRIFQYYSMGWYRQAPGKERELLAAMSSRGGSTTYADSVKGRFTISRDNAKNTVYLQMNRLKPEDTAVYYCASDWYYYPQYRQRYYYWGQGTQVTVSS,high polyreactivity
11,QVQLVESGGGLVQAGGSLRISCAASGRIFTTYAMGWYRQAPGKEREFVADITLSGSSTYYADSVKGRFTISRDNAKNTVYLQMNSLKPEDTAVYYCAARTGRYYRRYDYWGQGTQETVSS,high polyreactivity
12,QVQLVESGGGLVQAGGSLRISCAASGRIFVGYAMGWYRQAPGKERELVAAINRSGSSTYYADSVKGRFTISRDNAKNTVYLQMNSLKPEDTAVYYCNARSGNRYGPRYDYWGQGTQVTVSS,high polyreactivity
13,QVQLVESGGGLVQAGGSLRISCAASGRIFVSNAMGWYRQAPGKDRELVAAISKSGARTSYADSVKGRFTISRDNAKNTVYLQMNSLKPEDTAVYYCAAPVRWSGGGEYPNYYWGQGTQVTVSS,high polyreactivity
14,QVQLVESGGGLVQAGGSLRISCAASGRIFYSNTMGWYRQAPGKEREVVARIDTGGGSTYADSVKGRFTISRDNAKKSVYLEMHSLKPADTAVYYCYKKGRWRSWGSTSLVSMDYWGQGTQVTVSS,low polyreactivity
15,QVQLVESGGGLVQAGGSLRISCAASGRILYRYAMGRYRQAPGKERELVAAITWRGGTTYYADSVKGRFTISRDNAKNTVYLQMNSLKPEDTAVYYCNADWWRTLESDYWGQGTQVTVSS,low polyreactivity
16,QVQLVESGGGLVQAGGSLRISCAASGRTFECYAMGWSRQAPGKERELVAAISSGGSTYYADSVKGRFTISRDNAKNTVYLQMNSLKPEDTAVYYCNVLSQQRTARYDYWGQGTQVTVSS,low polyreactivity
17,QVQLVESGGGLVQAGGSLRISCAASGRTFPGNAMGCYRQAPGKERELVAAISYSGGRTYYADSVKGRFTISRDNAKNTVYLQMNSLNPEDTAVYYCNRTPYSDYVFAYDYWGQGTQVTVSS,high polyreactivity
18,QVQLVESGGGLVQAGGSLRISCAASGRTFQFNVMGWYRQAPGKERELVASIRSGGSTNYADSVKGRFTISRDNAKNTVYLQMNSLKPEDTAVYYCAARVASPYYRYDYWGQGTQVTVSS,low polyreactivity
19,QVQLVESGGGLVQAGGSLRISCAASGRTFSNYAMGWYRQAPGKERELVAAISGSGGSTRYADSVKGRFTISRDNANITVYLQMNSLKPEDTAVYYCAARGAGPLHNHYSWGQGTQVTVSS,high polyreactivity
20,QVQLVESGGGLVQAGGSLRISCAASGRTFYRNAMGWNSKAPGKERELVAAIRRSDGSTYYADSVKGRFTISRDNAKNTVYLQMNSLKPEDTAVYYCAAGQGSRNLYYYWGQGTQVTVSS,high polyreactivity
21,QVQLVESGGGLVQAGGSLRISCAASGRTIDSYAMGWYRQAPGKERELVAAISWGGGSTYYADSVKGRFTISRDNAKNTVYLQMNSLKPEDTAVYYCAARWNYTEFDYWGQGTQVTVSS,low polyreactivity

row,Sequence,polyreactivity (PSR sort gate)
1,QVQLVESGGGLVQAGGSLRISCAASGRTLFGYAMGWYRQAPGKERELVAAITYGATSTYADSVKGRFTISRDNAKNTVYLQMNSLKPEDTAVYYCNAYTPTDGFDYWGQGTQVTVSS,low polyreactivity
2,QVQLVESGGGLVQAGGSLRISCAASGRTLGYNAMGWYRQAPGKERELVAAISWSGGSTYYADSVKGRFTISRDNAKNTVYLQMNSLNPEDTAVYYCAARNNRYPLYNYWGQGTQVTVSS,low polyreactivity
3,QVQLVESGGGLVQAGGSLRISCAASGRTLTSNAMGWYRQAPGKERELVASITGSSSNTYYADSVKGRFTISRDNAKNTVYLQMNSLKPEDTAVSYCAAEVGFPWWRLDEYWGQGTQVTVSS,low polyreactivity
4,QVQLVESGGGLVQAGGSLRISCAASGRTSHAYAMGWYRQAPGKERELVAAITRVTSTYYADSVKGRFTISRDNAKNTVYLQMNSLKPEDTAVYYCAAGKGYYRSDYWGQGTQVTVSS,low polyreactivity
5,QVQLVESGGGLVQAGGSLRISCAASGSIFRGNAMGWYRQAHGKERELVAAITRGVSTYYADSVKGRFTISRDNAKNTVYLQMNSLKPEDTAVYYCAKPYWWGYYSWGQGSQVTVSS,high polyreactivity
6,QVQLVESGGGLVQAGGSLRISCAASGSIFRGYGMGWDRQAPGKERELVAAINYSGGSTYYADSVKGRYTISRDNAKNTVYLQMNSLKPEDTAVYYCNKVYYRQRGEYYYWGQGTQVTVSS,high polyreactivity
7,QVQLVESGGGLVQAGGSLRISCAASGSIFTINAMGWYRQAPGKERELVARITSVDSTNYADSVKGRFTISRDNAKNNVHLQMNSLKPEDTAVYYCNATFGYPFVDYDDYWGQGTQVTVSS,low polyreactivity
8,QVQLVESGGGLVQAGGSLRISCAASGSIFTPNAMGWYRQAPGKERELVAAISSSSDRTYYADSVKGRFTISRDNAKNTVYLQMNSLKPEDTAVYYCNAYYRYGIQFDYWGQGTQVTVSS,high polyreactivity
9,QVQLVESGGGLVQAGGSLRISCAASGSIFTRYAMGWYRQAPGKERELVAAIRTSGGSTYYADSVKARFTISRDNAKNTVYFQMNSLKPEDTAVYYCARRYYKSNFYYWGQGTLVTVSS,high polyreactivity
10,QVQLVESGGGLVQAGGSLRISCAASGSIFYVYAMGWYRQAPGKERELVATISTGGSTYYADSVKGRFTISRDNAKNTVYLQMNSLKPEDTAVYYCNAQFTPRYWGGYDSWGQGTQVTVSS,low polyreactivity
11,QVQLVESGGGLVQAGGSLRISCAASGSILFGNAMGWYRQAPGKERELVAAITVSGGSTYYADSVKGRFTISRDNAKNTVYLQMNSLKPEDTAVYYCAAVSLFRDSQFDYWGQGTQVTVSS,low polyreactivity
12,QVQLVESGGGLVQAGGSLRISCAASGSTFASTALGRYRLAAGKEMELVASISGSGGSTFYADSVKGRFTISRDNAKNTVYLQMNSLKPEDTEVYYCAAYKEPYYEEYGYGGQGTQVTVSS,low polyreactivity
13,QVQLVESGGGLVQAGGSLRISCAASGSTFFLYAMGWYRQAPGKERELVAAISTTGGSTNYADSVKGRFTISRDNAKYTFELQINSLKPEDTAVYYCAAGPSAQSIYDHWGQGTQVTVSS,low polyreactivity
14,QVQLVESGGGLVQAGGSLRISCAASGSTFKIYAMGWYRQAPGKERELVAAITGGGSSTYYADSVKGRFTISRDNSKNTVYLQMNSLKPEDTAVYYCAADLSGADSTGDYYYWGQGTQVTVSS,low polyreactivity
15,QVQLVESGGGLVQAGGSLRISCAASGSTFLINAMGWYRQAPGKERELVAAIRYSGGRTYYADSVKGRFTISRDNAKNTVYLQMNSLKPEDTAVYYCNARPYRSQIGVHYDYWGQGTQVTVSS,high polyreactivity
16,QVQLVESGGGLVQAGGSLRISCAASGSTFLYYAMGWYRQAPGKERELVAAISWDGGNTYYADSVKGRFTISRDNAKNTVYLQMNSLKPEDTAVYYFAAKHYGSYLYWFGSDYWGQGTQVTVSS,high polyreactivity
17,QVQLVESGGGLVQAGGSLRISCAASGSTFSDYDMVWYRQAPGKERELVAAISKRGGSTDYADSVKGRFTFSRDNAKITVYLQMNSLKPEDTAVYYCAKDGTHGYDYWGQGTQVTVSS,low polyreactivity
18,QVQLVESGGGLVQAGGSLRISCAASGSTFVSYAMGWYRQAPGKERELVATISWRGGSTYYADSVKGRFTISRDNAKNRDYLHMNSLNPEDTAVYYCAADLWHSQYYYGYEYWGQGSQVTVSS,low polyreactivity
19,QVQLVESGGGLVQAGGSLRISCAASGSTIGVNAMGLYRQAPGKEMELVAAISVSGGRTYYADSVKGRFTISRDYAKNTVYLQMNSLKPEDTAVYYCAATTYIWPYDYWGQGTQVNVSS,low polyreactivity
20,QVQLVESGGGLVQAGGSLRISCAASGSTLRSNAMGWYRQAPGKERELVASISSGGSTSYADSVKGRFPISRDNAKNTVYFQMNSLKPEDTAVLYCAADGTLTLYRYILDYWGQGTQVTVSS,low polyreactivity
